Here are results for 36 molecules from patent publication US20210283212A1 (RA PHARMACEUTICALS, published 2021).

B1: R3149 (peptide)
peptide: Ac-CAERFCD[Tle]YWEYP[dPhg][Nva]-NH2
modifications: linker 1-6 via mXylyl(3)
B2: R3122 (peptide)
peptide: Ac-[Nva]C[Tiq1c(1S)]T[Trp(7-aza)]EY[NMeS]HC[Nva]-NH2
modifications: linker 2-10 via mXylyl(3)
B3: R3103 (peptide)
peptide: Ac-[Nva][hCys][Phg]T[Trp(7-aza)]EY[NMeS]HC[Nva]-NH2
modifications: linker 2-10 via mXylyl(3)
B4: R3106 (peptide)
peptide: Ac-[Nva]C[Phg]T[Trp(7-aza)]EY[NMeS]H[hCys][Nva]-NH2
modifications: linker 2-10 via pXylylene
SMILES: CCC[C@H](NC(=O)[C@@H]1CCSCc2ccc(cc2)CSC[C@H](NC(=O)[C@H](CCC)NC(C)=O)C(=O)N[C@@H](c2ccccc2)C(=O)N[C@@H]([C@@H](C)O)C(=O)N[C@@H](Cc2c[nH]c3ncccc23)C(=O)N[C@@H](CCC(=O)O)C(=O)N[C@@H](Cc2ccc(O)cc2)C(=O)N(C)[C@@H](CO)C(=O)N[C@@H](Cc2c[nH]cn2)C(=O)N1)C(N)=O
B5: R3012 (peptide)
peptide: Ac-[Nva]C[Phg]T[Trp(7-aza)]EY[NMeS]HC[Nva]-NH2
modifications: linker 2-10 via mXylyl″
B6: R3011 (peptide)
peptide: Ac-[Nva]C[Phg]T[Trp(7-aza)]EY[NMeS]HC[Nva]P-NH2
modifications: linker 2-10 via mXylyl″
B7: R3113 (peptide)
peptide: Ac-Y[Nva]C[Phg]T[Trp(7-aza)]EY[NMeS]HC[Nva]-NH2
modifications: linker 3-11 via mXylyl(3)
B8: R3150 (peptide)
peptide: Ac-CVARFCD[Tle]Y[Trp(7-aza)]EYP[Phg][Nva]-NH2
modifications: linker 1-6 via mXylyl(3)
B9: R3101 (peptide)
peptide: VCGTWEYSHGCV
modifications: not fully specified; [mXylyl(2,10)]Ac-Nvl-C-Phg-T-azaTrp-E-Y-(N-Me)S-H-G-C-Nvl-NH2
B10: R3112 (peptide)
peptide: Ac-[Nle]C[Phg]T[Trp(7-aza)]EY[NMeS]HC[Nva]-NH2
modifications: linker 2-10 via mXylyl(3)
B11: R3010 (peptide)
peptide: Ac-[Nva]CYE[Sar][Tle]Y[Trp(7-aza)]E[Nva][Nva]PC-NH2
modifications: linker 2-13 via mXylyl″
B12: R3104 (peptide)
peptide: Ac-[Nva][hCys][Phg]T[Trp(7-aza)]EY[NMeS]HC[Nva]-NH2
modifications: linker 2-10 via pXylylene
SMILES: CCC[C@H](NC(=O)[C@@H]1CSCc2ccc(cc2)CSCC[C@H](NC(=O)[C@H](CCC)NC(C)=O)C(=O)N[C@@H](c2ccccc2)C(=O)N[C@@H]([C@@H](C)O)C(=O)N[C@@H](Cc2c[nH]c3ncccc23)C(=O)N[C@@H](CCC(=O)O)C(=O)N[C@@H](Cc2ccc(O)cc2)C(=O)N(C)[C@@H](CO)C(=O)N[C@@H](Cc2c[nH]cn2)C(=O)N1)C(N)=O
B13: R3105 (peptide)
peptide: Ac-[Nva]C[Phg]T[Trp(7-aza)]EY[NMeS]H[hCys][Nva]-NH2
modifications: linker 2-10 via mXylyl(3)
B14: R3000 (peptide)
peptide: Ac-[Nva]CYKNYH[Trp(7-aza)]EYP[Tle]Y-NH2
SMILES: CCC[C@H](NC(C)=O)C(=O)N[C@@H](CS)C(=O)N[C@@H](Cc1ccc(O)cc1)C(=O)N[C@@H](CCCCN)C(=O)N[C@@H](CC(N)=O)C(=O)N[C@@H](Cc1ccc(O)cc1)C(=O)N[C@@H](Cc1c[nH]cn1)C(=O)N[C@@H](Cc1c[nH]c2ncccc12)C(=O)N[C@@H](CCC(=O)O)C(=O)N[C@@H](Cc1ccc(O)cc1)C(=O)N1CCC[C@H]1C(=O)N[C@H](C(=O)N[C@@H](Cc1ccc(O)cc1)C(N)=O)C(C)(C)C
B15: R3141 (peptide)
peptide: Ac-CVERFCDVYWEFP-NH2
modifications: linker 1-6 via mXylyl(3)
B16: R3107 (peptide)
peptide: Ac-[Nva][hCys][Phg]T[Trp(7-aza)]EY[NMeS]H[hCys][Nva]-NH2
modifications: linker 2-10 via mXylyl(3)
B17: R3009 (peptide)
peptide: Ac-[Nva]CYE[Sar][Tle]Y[Trp(7-aza)]EC[Nva]P[Nva]-NH2
modifications: linker 2-10 via mXylyl″
B18: R3137 (peptide)
peptide: Heptanoyl-C[dPhg]T[Trp(7-aza)]EY[NMeS]AC[Nva]-NH2
modifications: linker 1-9 via mXylyl(3)
B19: R3147 (peptide)
peptide: Ac-CVERFCDVYWEF[Pra]-NH2
modifications: linker 1-6 via mXylyl(3)
B20: R3102 (peptide)
peptide: Ac-[Nva]C[Phg]T[Trp(7-aza)]EYPHC[Nva]-NH2
modifications: linker 2-10 via mXylyl(3)
B21: R3013 (peptide)
peptide: Ac-[Nva]C[Phg]T[Trp(7-aza)]EY[NMeS]HC-NH2
modifications: linker 2-10 via mXylyl″
B22: R3143 (peptide)
peptide: CVERFCDGYWEYP
modifications: [mXylyl(1,6)]Ac-C-V-E-R-F-C-D-Tbg-Y-W-E-Y-P-NH2
B23: R3127 (peptide)
peptide: Ac-[Nva]CYNN[Tle]E[Trp(7-aza)]ECP[Phg][Tle]-NH2
modifications: linker 2-10 via mXylyl(3)
B24: R3146 (peptide)
peptide: Ac-C[Tle]ERFCDVYWEF-NH2
modifications: linker 1-6 via mXylyl(3)
B25: R3133 (peptide)
peptide: Ac-[Nva]C[Phg][dA][Trp(7-aza)]EY[NMeS]HC[Nva]-NH2
modifications: linker 2-10 via mXylyl(3)
B26: R3134 (peptide)
peptide: Ac-[Nva]C[Phg]T[Trp(7-aza)]E[Phe(3-Cl)][NMeS]AC[Nva]-NH2
modifications: linker 2-10 via mXylyl(3)
B27: R3140 (peptide)
peptide: Ac-CVERFCDVYWEYP-NH2
modifications: linker 1-6 via mXylyl(3)
B28: R3148 (peptide)
peptide: Ac-CAERFCD[Tle]YWEYP[Phg][Nva]-NH2
modifications: linker 1-6 via mXylyl(3)
B29: R3111 (peptide)
peptide: Ac-[Nva]T[Phg]C[Trp(7-aza)]EY[NMeS]AC[Nva]-NH2
modifications: linker 4-10 via mXylyl(3)
B30: R3108 (peptide)
peptide: Ac-[Nva][hCys][Phg]T[Trp(7-aza)]EY[NMeS]H[hCys][Nva]-NH2
modifications: linker 2-10 via pXylylene
SMILES: CCC[C@H](NC(=O)[C@@H]1CCSCc2ccc(cc2)CSCC[C@H](NC(=O)[C@H](CCC)NC(C)=O)C(=O)N[C@@H](c2ccccc2)C(=O)N[C@@H]([C@@H](C)O)C(=O)N[C@@H](Cc2c[nH]c3ncccc23)C(=O)N[C@@H](CCC(=O)O)C(=O)N[C@@H](Cc2ccc(O)cc2)C(=O)N(C)[C@@H](CO)C(=O)N[C@@H](Cc2c[nH]cn2)C(=O)N1)C(N)=O
B31: R3126 (peptide)
peptide: Ac-[Nva]CYNN[Tle]E[Trp(7-aza)]ECP[Phg][Tle]-NH2
modifications: cysteine pairing not given here
B32: R3139 (peptide)
peptide: Ac-C[Tle]ERFCD[Tle]YWEF-NH2
modifications: linker 1-6 via mXylyl(3)
B33: R3138 (peptide)
peptide: Ac-CVERFCD[Tle]YWEF-NH2
modifications: linker 1-6 via mXylyl(3)
B34: R3142 (peptide)
peptide: Ac-CVERFCDVY[Trp(7-aza)]EYP-NH2
modifications: linker 1-6 via mXylyl(3)
B35: R3135 (peptide)
peptide: Ac-[Nva]C[Phg]T[Trp(7-aza)]EY[NMeS][dA]C[Nva]-NH2
modifications: linker 2-10 via mXylyl(3)
B36: R3136 (peptide)
peptide: Heptanoyl-[Nva]C[dPhg]T[Trp(7-aza)]EY[NMeS]AC[Nva]-NH2
modifications: linker 2-10 via mXylyl(3)

Starred links: 1 amine or outer side, 2 acyl side, 3 side chain; linkers in the order of their positions; H or OH if unused. Positions of bridges follow the written chain, without caps; N, C: chain ends. Non-standard residues stand in square brackets, D forms with d. Primed or numbered codes have the meaning given here. *: point of attachment. mXylyl(3) = bridging moiety between the two residues given in brackets; mXylyl″ = bridging moiety between the two marked residues; Trp(7-aza) = N[C@@H](Cc1c[nH]c2ncccc12)C(=O)O; Phe(3-Cl) = N[C@@H](Cc1cccc(Cl)c1)C(=O)O; Tiq1c(1S) = O=C(O)[C@H]1NCCc2ccccc21; pXylylene = c1cc(C[*:2])ccc1C[*:1]; dPhg = N[C@@H](C(=O)O)c1ccccc1; Phg = N[C@H](C(=O)O)c1ccccc1; Tle = CC(C)(C)[C@H](N)C(=O)O; NMeS = CN[C@@H](CO)C(=O)O; hCys = N[C@@H](CCS)C(=O)O; Heptanoyl = CCCCCCC(=O)*; Nle = CCCC[C@H](N)C(=O)O; Pra = C#CC[C@H](N)C(=O)O; Nva = CCC[C@H](N)C(=O)O; Sar = CNCC(=O)O

In the assay the target is human C5 protein (human, UniProt P01031 19-673; P01031 678-1676). Put plainly: cell-based or functional assay.
For the molecule B1, the “Avg. IC50, human hemolysis assay” value came to 13.6 nM.

As to B2, the “Avg. IC50, human hemolysis assay” value was greater than 50000 nM.

For the molecule B3, the “Avg. IC50, human hemolysis assay” value was greater than 25000 nM.

On to B4, for which the “Avg. IC50, human hemolysis assay” value was greater than 5000 nM.

With B5, the “Avg. IC50, human hemolysis assay” value stood at 148 nM.

In the case of B6, the “Avg. IC50, human hemolysis assay” value came out at 112 nM.

Consider B7, for which the “Avg. IC50, human hemolysis assay” value is greater than 5000 nM.

Turning to B8, the “Avg. IC50, human hemolysis assay” value is 32 nM.

For B9, the “Avg. IC50, human hemolysis assay” value was greater than 100000 nM.

Take B10: the “Avg. IC50, human hemolysis assay” value is greater than 5000 nM.

B11: the “Avg. IC50, human hemolysis assay” value was greater than 100000 nM.

As for B12, the “Avg. IC50, human hemolysis assay” value is greater than 2000 nM.

As for B13, the “Avg. IC50, human hemolysis assay” value is greater than 5000 nM.

On to B14, for which the “Avg. IC50, human hemolysis assay” value is greater than 10000 nM.

As for B15, the “Avg. IC50, human hemolysis assay” value came out at 24.5 nM.

For the molecule B16, the “Avg. IC50, human hemolysis assay” value is greater than 75000 nM.

As to B17, the “Avg. IC50, human hemolysis assay” value is greater than 100000 nM.

B18: the “Avg. IC50, human hemolysis assay” value is greater than 100000 nM.

Regarding B19, the “Avg. IC50, human hemolysis assay” value turned out to be 138 nM.

With B20, the “Avg. IC50, human hemolysis assay” value amounted to 978 nM.

Turning to B21, the “Avg. IC50, human hemolysis assay” value was 344 nM.

Consider B22, for which the “Avg. IC50, human hemolysis assay” value turned out to be 18.6 nM.

Consider B23, for which the “Avg. IC50, human hemolysis assay” value is greater than 75000 nM.

For the molecule B24, the “Avg. IC50, human hemolysis assay” value came to 107 nM.

As for B25, the “Avg. IC50, human hemolysis assay” value is greater than 75000 nM.

Consider B26, for which the “Avg. IC50, human hemolysis assay” value was greater than 5000 nM.

For the molecule B27, the “Avg. IC50, human hemolysis assay” value was found to be 17.9 nM.

With B28, the “Avg. IC50, human hemolysis assay” value stood at 8.5 nM.

Regarding B29, the “Avg. IC50, human hemolysis assay” value is greater than 5000 nM.

For the molecule B30, the “Avg. IC50, human hemolysis assay” value is greater than 75000 nM.

As for B31, the “Avg. IC50, human hemolysis assay” value was greater than 3000 nM.

Consider B32, for which the “Avg. IC50, human hemolysis assay” value is 97.2 nM.

Turning to B33, the “Avg. IC50, human hemolysis assay” value is 87.2 nM.

In the case of B34, the “Avg. IC50, human hemolysis assay” value came out at 44.6 nM.

As for B35, the “Avg. IC50, human hemolysis assay” value is greater than 25000 nM.

As to B36, the “Avg. IC50, human hemolysis assay” value was greater than 50000 nM.
